The values below come from the DeepSol protein solubility set.

The nature of the series: soluble on expression in E. coli; label from the status in PepcDB or PDB records.
On to “MGSDKIHHHHHHMGHYEHKTKEELLEIVCKLEKKVEGLSSELDSLKKGRFRERYSTRILDALPDMLTVFDHNANIVELASSPTTNHVEGTTSDSIINSNVKDIVPEEAYESVRHNMDKVIHTGKSSTAEHSLMLDGVLHHYENRIFPLDDQYLLCMCRDVSQETEMAKINETQRSEIVRLNSLMNDILNNIPVYLFVKDTGNDFRYLYWNKAFAEHSGISVQRAVGSTDADIFPDKKDAEHFREDDLKVMKLGRIEYLENYTTMSGEVRTVTTMKTVVPSGGQHPYIIGVSWDVTEIKKTEKELIAARIKAEEADRMKSSFLANMSHEIRTPLNAIVGFSKLIIEADNECEKRQYADIVEHNSTVLLNLFNDILDLSALEAGSLELSYHPVRLKDICLQLYELHVKSVKPEVRLVLDEVDSQLCIQGDWERISQVLVNLITNAIKFTSVGEIHFGFQKKADMVQFYMSDTGKGIPAERVATIFQRFGKIDDFVQGTGLGLTICRMLVEKMGGRIWVRSKQGEGTVFYFTLPMAK”, for which the “soluble on expression in E. coli” value was “not soluble”.

Take “MAHHHHHHMMRSRRPLSASRASARASAASRPQPHTTVSSDDASRSQTTAPIYRPLRYVGRGSFGVVLLAEEVHTGDRVAIKRVHYDARLHNREVAILNSVLVDNPRHQQPSSTAVDSNDASRRPGGAARASCTSFLSASSSSHTVEDVHLWPGTHHPNIVELLDFYVTYDTASSEQALGADMVGAGGAGAGFEFLPSYHPAAHRYPLSGGSGAASASAPPVPAPLAAFAYLEMVMSYLPMDLCYVKRYYFRFHDMPTIATSSSSSPIASPEQAPTELSSGELPEGTADRLPASPKHAGTGCNGNNSSRHSSTSSSGGDVCNHLPLRWVKVVLFQLARALAFMHVRHVCHRDLKPANVLVDPDTGRVQVCDFGSAKQITRPAEEKNVSYICSRYYRAPELLFGALHYGCAVDMWSFGCIAAELLRESGKPLFRGCTSIDQMAELFKVLGAPSKREMYAMNPQCAEALLRTRAMHRHQSLDNDPHSGSGGGVRQDRSCGLELEVDYQAEEEDDVELRGGAQQGGYDVDSHGEFLRDALDDGISSQASASPGMATASPPSSSTKDPRDYKTTFSAPPSTAATAMLDDVAPTPFEEYYDVLKVRAIPWRRLFPVDTPTEAVALVASLLCYAPDKRLTAAELVEHPFFDDLFSAADAQLATVDRDAATAVASGATMSPSEDDGVASAALRLPNGRLMPLSMFQVTEVERGLYTDAFLTRMARQAELVAAVMKQDEYP”: the “soluble on expression in E. coli” value was “not soluble”.

With “MAHIVQTHKLTLHDVAIDQALVYSSDSNCAELKRTFQVELAHGYNEVKVQNLPFDLVQDSIRVSGAGEAVIHDVSVKNQEGAEFVIPERVLAIKAIFEEKERAKDKVADSRVAVQKRIEGLDNLITEVAKHGKDGAFHFDGRTIESLNALHGFHQDTTVDLRAQIRTLDQDLRKAEEEYARASQDYDNTGYRWRNSAQYASIIVESEAGGAAQLTITYQVNNVSWTPFYDIRVTAGVEAEMHVTYFGKVRQYSGEDWKTVPLVLSTARPAHGVKQLPKLGALEASIVVPEPECNRGGRGGYGGGYAQDSVVMACAAPMMEMGRSRKSMKMSYAAVKSSNIASEFSIGRPATIDDRTDEYKVNIGQFTLDTKLSNVTVPSRNATAFLVANSVNTSDYPLVAGQASIFLDGAFVNKTEFEDAVVSQKFEVSLGVDPNIRIEYKPVRNYQEQSGTVEKINSQVTEKTTAVTNLRPNSVLLTIREQLPRSTDSRIKVHLNTPEAVEVDEASVEPTVGAAITPEKILDYTVQLAPGQSSTFVVKYTTEHPQAEQIRYEEKF”, the “soluble on expression in E. coli” value was “not soluble”.

As to “MTQPPASTSGIMGTLSSWNLKILQINQLHLVHWNAVKFENFEDAALEENGLAVIGVFLKISETSGSPVSTGRPKPLARKLRPAQKHWVLQSRPFLSSQVQENCKVTYFHRKHWVRIRPLRTTPPSWDYTRICIQREMVPARIRVLREMVPEAWRCFPNRLPLLSNIRPDFSKAPLAYVKRWLWTARHPHSLSAAW”, the “soluble on expression in E. coli” value is reported as “soluble”.

“PDLTAALRDVRQQYESVAAKNLQEAEEWYKSKFADLSEAANRNNDALRQAKQESTEYRRQVQSLTCEVDALK”: the “soluble on expression in E. coli” value is listed as “soluble”.

Regarding “MGHHHHHHSHMERFVVTAPPARNRSKTALYVTPLDRVTEFGGELHEDGGKLFCTSCNVVLNHVRKSAISDHLKSKTHTKRKAEFEEQNVRKKQRPLTASLQCNSTAQTEKVSVIQDFVKMCLEANIPLEKADHPAVRAFLSRHVKNGGSIPKSDQLRRTYLPDGYENENQLLNSQDC”, the “soluble on expression in E. coli” value was “soluble”.

For the sequence “MTEAIHCIGCGAIIQTENPHELGYTPKTAFEKGMETGEVYCQRCFRLRHYNDIQDVQLTDDDFLRLLNGLGTEDALIVNVVDIFDFNGSLIPGLHRFIGDNPVLLVGNKVDILPKSLKKPKMVQWMRERAHEAGLRPVDVLLTSGKKPQEMQELLDTIEKYREGRDVYVVGVTNVGKSTLINQIIQQTVGVQDVITTSQFPGTTLDKIEIPLDDGHFLIDTPGIIHRHQMAHYLGKKDLKIIAPQKEIKPKVYQLNAEQTLFLGGLARFDYVQGAKSSFIAYVSNDLKLHRTKTATADAFYEKHVGGLLQPPRADEVAEFPELVRFEFSVKEKTDIVFAGLGWITVTEPGVVAGWAPKGVDVLRRKALILEHHHHHH”, the “soluble on expression in E. coli” value is given as “not soluble”.

Take “MGSDKIHHHHHHMAQPGKILKEQKYDRQLRLWGDHGQEALESAHVCLINATATGTEILKNLVLPGIGSFTIIDGNLVSGEDAGNNFFLQKSSIGKNRAQAAMEFLQELNSDVSGSFVEESPENLLDNDPSFFCRFTIVVATQLLESTLLRLADVLWNSQIPLLICRTYGLVGYMRIIIKEHPVIESHPDNALEDLRLDKPFPELREHLQSYDLDHMEKKDHSHTPWIVIIAKYLAQWYNETNGRIPKSYKEKEDFRDLIRQGILKNENGAPEDEENFEEAIKNVNTALNTTQIPSSIEDIFNDDRCINITKQTPTFWILARALKEFVAKEGQGNLPVRGTIPDMIADSNKYIKLQNVYREKAKKDAAAVGNHVAKLLQSVGQAPESISEKELKLLCSNSAFLRVVRCRSLAEEYGLDTVNKDEIISSMDNPDNEIVLYLMLRAVDRFHKQHGRYPGVSNYQVEEDIGKLKSCLTGFLQEYGLSVMVKDDYVHEFCRYGAAEPHTIAAFLGGAAAQEVIKIITKQFVIFNNTYIYSGMSQTSATFQL”: the “soluble on expression in E. coli” value is listed as “not soluble”.

Turning to “SVAADSAATESLGRIGSLSQVSGVLGCQWGDEGKGKLVDILAQHFDIVARCQGGANAGHTIYNSEGKKFALHLVPSGILNEDTTCVIGNGVVVHLPGLFKEIDGLESNGVSCKGRILVSDRAHLLFDFHQEVDGLRESELAKSFIGTTKRGIGPAYSSKVIRNGIRVGDLRHMDTLPQKLDLLLSDAAARFQGFKYTPEMLREEVEAYKRYADRLEPYITDTVHFINDSISQKKKVLVEGGQATMLDIDFGTYPFVTSSSPSAGGICTGLGIAPSVVGDLIGVVKAYTTRVGSGPFPTENLGTGGDLLRLAGQEFGTTTGRPRRCGWLDIVALKFSCQINGFASLNLTKLDVLSDLNEIQLGVAYKRSDGTPVKSFPGDLRLLEELHVEYEVLPGWKSDISSVRNYSDLPKAAQQYVERIEELVGVPIHYIGIGPGRDALIYK”, the “soluble on expression in E. coli” value was “soluble”.

Consider “MASFARRAMSLAQIPSARISSGAASIGQRRCLAGAADHHGSTKVDFWKQPTNPGNWKEEHFVLISLSGWGLLFYSGYKLATGGKKEYTMSFIVTRKTFYGETSHSHALCFPF”, for which the “soluble on expression in E. coli” value is “not soluble”.

For the sequence “MSLIHPHIADALKVPDLVRLNDDLVLIRFESMKIYSALAAVRHLLERGTIRPGQTLIDSSSGIYAYALALACHRYGMRCHVVASTTVDTTTRAQLEILGATVEQVRPSRNLKLDQELRVRRVREILADHPDWHWMRQYHDDVHYLGYQEVADRITTAFPSTPLTVVGGVGSGASTGGLVERLRATDPSVRLVGVQPFGSVTFGSQAHHDPEAIIAGIGSSIVFDNVRHHLYDAVHWLDFTHAMSGTIALLRERAVFAGLSTGAGYLAATYEARRHPDRLHLVIGADTGHRYVERVFARHTEALDPAPLKPVEVSAPEEMSMPWSRMAWRRTAEGHHHHHH”, the “soluble on expression in E. coli” value is “soluble”.

Turning to “GHMSETYDFLFKFLVIGNAGTGKSCLLHQFIEKKFKDDSNHTIGVEFGSKIINVGGKYVKLQIWDTAGQERFRSVTRSYYRGAAGALLVYDITSRETYNALTNWLTDARMLASQNIVIILCGNKKDLDADREVTFLEASRFAQENELMFLETSALTGENVEEAFVQCARKILNKIESGELDPERMG”, the “soluble on expression in E. coli” value is reported as “soluble”.

As to “MSLNNYKIFISAGESSGDIHGANLMRSLLKKNPNITFYGLGKERMNEAGLHCLCDMKTKSLMWLHALTELSAFLRMKKDCVRFFQHETPCAVILIDYCGFNFQLARAAKKLKIPVIYYITPQLWAHGPWRIKKLRKLVDFLIVIYPFEKSFYETSGLPVTYVGHPLFDELDRERRINNHLSMEEKQVGEYIVSLLPGSRKQEIIRLLPLLLRAAKQIKQTIPSIKILVSCTSEQYFSLIRLIVEASHLPAEIIVGCVRKIIQSSDICLAGSGTVTLQIAYYHTPMLIVYKISPFAYFIARPFLTTPYIGLVNILANKMIVPETLMCSNNYSRLANQAIELLRNNQKRHLCIENLRSLMDDIGKPGASERAAEEIFRFLRQETEGHHHHHH”, the “soluble on expression in E. coli” value was “not soluble”.

Take “MTNLEIEYKTLLTKNEYNRLLSQMKHVTPVTQTNYYIDTKAFDLKANKMSLRIRTFVNSAELTLKVPEKVGNREYNVPLFLEQAKDMIKHGNLPESTALDIIISKGIKPSALVTFGNLTTVRRETVIPIGKLALDYNLYANTKDYELELEVSDALQGKIDFDSFLSEYHITFKYAKSKVARCINTLKKFNDK”: the “soluble on expression in E. coli” value is recorded as “not soluble”.

“MSLTNTNAVELVKEAIDRGAEIILVKVDSKKYVKMSLELVKHFTEFAEGIFVTLNRPYFSLKKMLLKEGVDISKLYFIDCITLQLGGQVIDEERCFYLTSPDPVQLQVTIERAMDLVTVNNRFIYLDSLSTISLYKSFETLVKFLRHLTGKMRLRGFVGTIFTIEKEMDESYYSQISLMVDEVIEVDEGHHHHHH”: the “soluble on expression in E. coli” value is recorded as “soluble”.

As to “MVDGEGITPKTCSEDIIKDLLNDVKSSEKPFSVDKLAGCDQTDFVGKRPKKHHRHKSKKSKKVRRRSKTWSSSRSRSRSRSRSRGRSQERRRSRKSRKSRSRSRLKHREEKIEKKNLEKAPKNELIPQAPSTENGKPKEFKEPPRKDEADDLPLGADFSTPLVKKETKLAISITTVLPKAENKKEVEDGEIEEIAYGDGDFKEPEGIEKNLENKNICENGNLDNSENEKSKEKDKNRKKEKTERKRKRSHSSSDRRGRRTSKESRRRSRSRDTHRTRRRSPERSRRSTETRNERPERPSRWRSRSRERKEYDSYRRRRSRSREVIDKEKLLAIAKTKRAEMMSNGDRDSASIEDFVTYCKKLQRRQEREKRREAGHDVSDHDSDRETVRYKHPYAMPKEPIRINIVTATSANLAQKAITGPEEPTQLGAAQLRIVFPVSSGAVHKENAEWVPVEKEDVPKSCSVEQKKHVALTSLEIDRCRAQGIPVAPAPVPKFLNSILPPPPAPPQFLPNPTDSFRPPTPPPLPSVLYVPNKDQMILKEPKDIPIPAPSDIGKVLKQRTEAQRKVLSTPNDFDAHRALREANEQISLWAALKSLPGEYTGTTGLRLLTADELQPQNPKYHAWVKKDQFRNAAPATGGIGRLMLEKMGWRPGEGLGKDATGNLEPLMLDVKSDRKGLIAEEEMSIKQRNKINAQNNVPVDLSNKNPISLIMELCAKRRWNPPSFSCEESGADHLKMFVWTIVINDVEYRPMCGSKQKKEGKAVAAQVALQSLGVLPMDPNLPVYM”, the “soluble on expression in E. coli” value was “not soluble”.

For the sequence “IVMADWLKIRGTLKSWTKLWCVLKPGVLLIYKTQKNGQWVGTVLLNACEIIERPSKKDGFCFKLFHPLEQSIWAVKGPKGEAVGSITQPLPSSYLIIRATSESDGRCWMDALELALK”, the “soluble on expression in E. coli” value is recorded as “soluble”.
